Measured values as given in patent publication US20250282887A1 (Amgen, published 2025).
Residue numbers refer to the chain shown, from its start.

T1: Human MAGEB2 (Melanoma-associated antigen B2) (human, UniProt O15479 1-319)
T1 construct: Intracellular antigen detected by IHC in FFPE material: CHO cells transfected with human MAGEB2 (mCherry vector with Myc/DDK tags, or ORF without tags)
T1 sequence: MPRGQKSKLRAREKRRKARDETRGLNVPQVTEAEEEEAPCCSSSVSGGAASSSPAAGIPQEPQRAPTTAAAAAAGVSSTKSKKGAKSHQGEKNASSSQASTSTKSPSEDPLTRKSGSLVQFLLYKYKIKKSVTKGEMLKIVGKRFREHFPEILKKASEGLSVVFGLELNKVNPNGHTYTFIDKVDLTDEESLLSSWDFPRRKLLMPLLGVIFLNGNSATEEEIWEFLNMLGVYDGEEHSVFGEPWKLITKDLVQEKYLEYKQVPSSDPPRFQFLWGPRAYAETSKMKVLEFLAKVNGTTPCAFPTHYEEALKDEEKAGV

B1: 1C3 (antibody, V domains shown)
VH: QSLEESGGGLVQPEGSLTLTCTAFGVTLTNYYICWVRQAPGKGLEWVGCIDNANGRTYYASWAKGRFTISKTSSTTGTLQMTSLTAADTATYFCARSLATPLWGPGTLVTVSS
VL: DIVMTQTPSSVEAAVGGTVTIKCQASQNISSYLAWYQQKPGQPPKLLIYRASTLASGVPSRFKGSGSGTQFTLTISDLECADAATYYCQSYDDSRSSNFFYAFGGGTEVVVKG
notes: also called MAGE-B2 (IC3); anti-MAGEB2 antibody 1C3
B2: 4G17 (antibody, IgG1, V domains shown)
VH: B1 VH with F24S, T29S, V47I, A53V
VL: DIVMTQTPASVEAAVGGTVTIKCQASQNIDSYLAWYQQKPGQPPKLLIYRASTLASGVPSRFKGSGSGTEFTLTISDLECADAATYYCQSYDDSRSSSFFYGFGGGTEVVVK
notes: Rabbit monoclonal IgG1; Tested as supernatant and as small batch purified antibody; also called MAGE-B2 (4G17); anti-MAGEB2 antibody 4G17
B3: 1J15 (antibody, IgG1, V domains shown)
VH: B1 VH with V26F, T29N, V47I, G48A, G77V, A99S
VL: B2 VL with N28S, D30S, A34S, K63R, E70Q, R95S, S96D, S97N, S98N, K112R
notes: Rabbit monoclonal IgG1; Tested as supernatant and as small batch purified antibody; also called MAGE-B2 (IJ15); anti-MAGEB2 antibody 1J15
B4: 1I14 (antibody, V domains shown)
VH: QSVEESGGRLVTPGTPLTLTCTISGFSLSSYAMSWVRQAPGKGLEWIGSIGGGGSAVYASWAKGRFTISKTSTTVDLRITSPTTEDTAMYFCGRGFYSIDLWGPGTLVTVSS
VL: DVVMTQTPASVEATVGGTVTIKCQSSQSVYDNNALAWYQQNAGQRPRLLIYGASTLASGVPSRFSASGSGTEFTLTISDLECADAATYYCQCTYYVSSYQNDFGGGTEVVVKG
notes: also called MAGE-B2 (1i14)

Biological target: T1, Human MAGEB2 (Melanoma-associated …)
Test: IHC on FFPE SCaBER cells (endogenous MAGEB2)
Protocol: FFPE samples were sectioned at 4 μm and mounted on positive charged glass slides. After mounting, paraffin sections were air-dried at room temperature. FFPE TMA samples were received as freshly sectioned and mounted on glass slides. The fully automated IHC assay was performed on a Discovery Ultra Stainer (Ventana Medical Systems, Tucson, AZ) using Ventana Anti-Rabbit HQ (cat #760-4815), Ventana Anti-HQ HRP (cat #760-4820), and Ventana Antibody Diluent with Casein (cat #760-219) (Ventana Medical Systems, Tucson, AZ). The slides were baked on the Discovery Ultra Stainer at 60° C. for 8 minutes, de-paraffinized with Ventana Discovery wash (cat #950-510) for 3 cycles (8 minutes each) at 69° C., and underwent cell conditioning (target retrieval) at 95° C. for 16 minutes (for cell arrays) or 32 minutes (tissues or TMAs) in CC1 buffer (cat #950-500). Following this, slides were incubated with Background Sniper (cat #BS966M, Biocare Medical, Pacheco, CA) in a Ventana Option Prep kit (cat #771-751) for 28 minutes, incubated with CM inhibitor (a part of the Ventana DAB kit cat #760-159) for 12 minutes, and incubated for 1 h at RT with MAGE-B2 antibody diluted with Ventana diluent with Casein in a Ventana Prep kit (cat #770-001) (working concentration at 0.1 μg/ml for cell pellet, or 1-5 ug/ml for tissues) or with a matched concentration of isotype control Rabbit IgG1 antibody. Following this, slides were incubated with the Ventana Anti-Rabbit HQ (cat #760-4815) for 28 minutes at RT, Ventana Anti-HQ HRP (cat #760-4820) for 28 minutes at RT, and signals detected with Ventana DAB chromogen kit (cat #760-159) for 5 minutes at RT. Slides were counterstained with Ventana Hematoxylin II (cat #5266726001) for 8 minutes and Ventana Bluing reagent (cat #526676900) for 4 minutes. Slides were coverslipped and digitized using an Aperio AT2 scanner (Leica Biosystems Inc, Buffalo Grove, IL).

B1 and B2 are the same in “IHC % Frequency” value: 70% for the first, 70% for the second.

Compared with B3, B4 is lower in “IHC % Frequency” value: 50% for the first, 0% for the second.

B1 and B2 are the same in “IHC Intensity” value: 2 for the first, 2 for the second.

First: B3
Second: B4
The “IHC Intensity” value of the first is higher: 2 for the first, 0 for the second.
